Reference: patent US20250326861A1
Several values for one entry are separate records, joined by “and”; a condition that tells them apart may be missing. Equal values may be shown once.

Experiments:
Settings in all cases: remark: other sources report otherwise
[1] = molecular target: T1, Human kallikrein (analyte in the Biacore assay) (human), P03952; experiment: SPR, Biacore T200, 25 C, HBS-EP+; antibody captured through Fc, human kallikrein as analyte; full length antibody
[2] = molecular target: T1, Human kallikrein (analyte in the …); experiment: SPR, Biacore T200, 25 C, HBS-EP+; antibody captured on the chip through Fc, human kallikrein (activated, purified from human plasma) as analyte
[3] = molecular target: T1, Human kallikrein (analyte in the …); experiment: as above; remark: listed apart in the source

T1 sequence (P03952 20-638 limits assumed): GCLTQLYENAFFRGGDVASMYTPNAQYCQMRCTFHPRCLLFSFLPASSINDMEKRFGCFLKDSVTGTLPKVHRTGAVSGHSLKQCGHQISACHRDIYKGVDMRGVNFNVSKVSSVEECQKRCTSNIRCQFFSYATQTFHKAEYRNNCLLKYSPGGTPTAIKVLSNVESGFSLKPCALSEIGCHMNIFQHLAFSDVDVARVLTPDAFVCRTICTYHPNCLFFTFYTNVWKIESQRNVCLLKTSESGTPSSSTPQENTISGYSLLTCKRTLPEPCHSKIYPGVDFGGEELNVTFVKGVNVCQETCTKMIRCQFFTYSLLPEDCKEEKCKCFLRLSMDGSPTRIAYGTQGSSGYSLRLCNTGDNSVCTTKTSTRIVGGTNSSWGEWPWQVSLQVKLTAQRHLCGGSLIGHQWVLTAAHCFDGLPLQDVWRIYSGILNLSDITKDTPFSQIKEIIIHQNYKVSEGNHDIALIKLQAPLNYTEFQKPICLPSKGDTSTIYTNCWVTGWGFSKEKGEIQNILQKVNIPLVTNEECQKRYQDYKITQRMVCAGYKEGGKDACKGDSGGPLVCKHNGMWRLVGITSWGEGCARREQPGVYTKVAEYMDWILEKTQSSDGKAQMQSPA

- Kd [1]: 1.74 nM
- Kd [2]: 6.73 nM and 5.76 nM and 5.54 nM
- koff [2]: 0.000315 s⁻¹ and 0.000297 s⁻¹ and 0.000291 s⁻¹
- kon [2]: 51500 M⁻¹ s⁻¹ and 52600 M⁻¹ s⁻¹ and 46700 M⁻¹ s⁻¹
- koff [3]: 0.000347 s⁻¹
- kon [3]: 199000 M⁻¹ s⁻¹
B1: Lanadelumab (full length anti-pKal antibody) (antibody, IgG1, V domains shown)
VH: EVQLLESGGGLVQPGGSLRLSCAASGFTFSHYIMMWVRQAPGKGLEWVSGIYSSGGITVYADSVKGRFTISRDNSKNTLYLQMNSLRAEDTAVYYCAYRRIGVPRRDEFDIWGQGTMVTVSS
VL: DIQMTQSPSTLSASVGDRVTITCRASQSISSWLAWYQQKPGKAPKLLIYKASTLESGVPSRFSGSGSGTEFTLTISSLQPDDFATYYCQQYNTYWTFGQGTKVEIK
